Data published in patent US5866538A, “Insulin preparations containing NaCl” (Novo Nordisk A/S, priority 1996, dated 1999).

Experiments:
[1] = Stability (formation of dimers and polymers) of B29-N^ε-myristoyl des(B30) human insulin solutions, glycerol or mannitol, varying NaCl (Example VI); format: physicochemical; conditions: pH 7.5
Method: Solutions containing 0.6 mM B29-N^ε -myristoyl des(B30) human insulin, 1.5 mg/ml phenol and 1.72 mg/ml m-cresol, 16 mg/ml glycerol or 36 mg/ml mannitol, 13.1 μg/ml Zn, 7 mM sodium phosphate and varying amounts of sodium chloride were prepared. pH was adjusted to 7.5. Stability data (formation of dimers and polymers) after storage at 25° C. for 13 weeks or 37° C. for 8 weeks are presented in the following table 8.

[2] = Stability (formation of dimers and polymers) of B29-N^ε-myristoyl-des(B30) human insulin solutions, varying NaCl, mannitol and phenol (Example V); format: physicochemical; conditions: pH 7.4
Method: Solutions containing 0.6 mM B29-N^ε -myristoyl-des(B30) human insulin, 1.5 or 4.0 mg/ml phenol, 5 mM sodium phosphate, 13.1 μg/ml Zn, and varying amounts of sodium chloride and mannitol were prepared. pH was adjusted to 7.4. Stability data (formation of dimers and polymers) after storage at 25° C. for 13 weeks or 37° C. for 8 weeks are presented in the following table 7.

B29-N^ε -myristoyl-des(B30) human insulin
Di- & polymers (%) formed ([1]; 8 weeks at 37° C., NaCl 5 mM, glycerol 16 mg/ml): 2.55% | Di- & polymers (%) formed ([1]; 8 weeks at 37° C., NaCl 5 mM, mannitol 36 mg/ml): 2.28% | Di- & polymers (%) formed ([1]; 8 weeks at 37° C., NaCl 10 mM, glycerol 16 mg/ml): 2.25% | Di- & polymers (%) formed ([1]; 8 weeks at 37° C., NaCl 10 mM, mannitol 36 mg/ml): 1.90% | Di- & polymers (%) formed ([1]; 8 weeks at 37° C., NaCl 20 mM, glycerol 16 mg/ml): 1.82% | Di- & polymers (%) formed ([1]; 8 weeks at 37° C., NaCl 20 mM, mannitol 36 mg/ml): 1.61% | Di- & polymers (%) formed ([1]; 8 weeks at 37° C., NaCl 30 mM, glycerol 16 mg/ml): 1.83% | Di- & polymers (%) formed ([1]; 8 weeks at 37° C., NaCl 40 mM, glycerol 16 mg/ml): 1.78% | Di- & polymers (%) formed ([1]; 8 weeks at 37° C., NaCl 40 mM, mannitol 36 mg/ml): 1.56% | Di- & polymers (%) formed ([1]; 8 weeks at 37° C., NaCl 50 mM, glycerol 16 mg/ml): 1.68% | Di- & polymers (%) formed ([1]; 13 weeks at 25° C., NaCl 5 mM, glycerol 16 mg/ml): 1.08% | Di- & polymers (%) formed ([1]; 13 weeks at 25° C., NaCl 5 mM, mannitol 36 mg/ml): 1.05% | Di- & polymers (%) formed ([1]; 13 weeks at 25° C., NaCl 10 mM, glycerol 16 mg/ml): 0.98% | Di- & polymers (%) formed ([1]; 13 weeks at 25° C., NaCl 10 mM, mannitol 36 mg/ml): 0.84% | Di- & polymers (%) formed ([1]; 13 weeks at 25° C., NaCl 20 mM, glycerol 16 mg/ml): 0.80% | Di- & polymers (%) formed ([1]; 13 weeks at 25° C., NaCl 20 mM, mannitol 36 mg/ml): 0.71% | Di- & polymers (%) formed ([1]; 13 weeks at 25° C., NaCl 30 mM, glycerol 16 mg/ml): 0.80% | Di- & polymers (%) formed ([1]; 13 weeks at 25° C., NaCl 40 mM, glycerol 16 mg/ml): 0.79% | Di- & polymers (%) formed ([1]; 13 weeks at 25° C., NaCl 40 mM, mannitol 36 mg/ml): 0.70% | Di- & polymers (%) formed ([1]; 13 weeks at 25° C., NaCl 50 mM, glycerol 16 mg/ml): 0.72% | Di- & polymers (%) formed ([2]; 8 weeks at 37° C., NaCl 20 mM, mannitol 31 mg/ml, phenol 1.5 mg/ml): 0.77% | Di- & polymers (%) formed ([2]; 8 weeks at 37° C., NaCl 20 mM, mannitol 31 mg/ml, phenol 4.0 mg/ml): 0.77% | Di- & polymers (%) formed ([2]; 8 weeks at 37° C., NaCl 50 mM, mannitol 22 mg/ml, phenol 1.5 mg/ml): 0.71% | Di- & polymers (%) formed ([2]; 8 weeks at 37° C., NaCl 50 mM, mannitol 22 mg/ml, phenol 4.0 mg/ml): 0.71% | Di- & polymers (%) formed ([2]; 8 weeks at 37° C., NaCl 75 mM, mannitol 13 mg/ml, phenol 1.5 mg/ml): 0.65% | Di- & polymers (%) formed ([2]; 8 weeks at 37° C., NaCl 75 mM, mannitol 13 mg/ml, phenol 4.0 mg/ml): 0.70% | Di- & polymers (%) formed ([2]; 8 weeks at 37° C., NaCl 100 mM, mannitol 5 mg/ml, phenol 1.5 mg/ml): 0.66% | Di- & polymers (%) formed ([2]; 8 weeks at 37° C., NaCl 100 mM, mannitol 5 mg/ml, phenol 4.0 mg/ml): 0.68% | Di- & polymers (%) formed ([2]; 13 weeks at 25° C., NaCl 20 mM, mannitol 31 mg/ml, phenol 1.5 mg/ml): 0.40% | Di- & polymers (%) formed ([2]; 13 weeks at 25° C., NaCl 20 mM, mannitol 31 mg/ml, phenol 4.0 mg/ml): 0.42% | Di- & polymers (%) formed ([2]; 13 weeks at 25° C., NaCl 50 mM, mannitol 22 mg/ml, phenol 1.5 mg/ml): 0.35% | Di- & polymers (%) formed ([2]; 13 weeks at 25° C., NaCl 50 mM, mannitol 22 mg/ml, phenol 4.0 mg/ml): 0.37% | Di- & polymers (%) formed ([2]; 13 weeks at 25° C., NaCl 75 mM, mannitol 13 mg/ml, phenol 1.5 mg/ml): 0.34% | Di- & polymers (%) formed ([2]; 13 weeks at 25° C., NaCl 75 mM, mannitol 13 mg/ml, phenol 4.0 mg/ml): 0.39% | Di- & polymers (%) formed ([2]; 13 weeks at 25° C., NaCl 100 mM, mannitol 5 mg/ml, phenol 1.5 mg/ml): 0.31% | Di- & polymers (%) formed ([2]; 13 weeks at 25° C., NaCl 100 mM, mannitol 5 mg/ml, phenol 4.0 mg/ml): 0.37%
